Drawing on patent publication US20190161551A1, this text covers % Blockade with 100 nM antibody for 2 substances.

Test [1] concerns the target human TrkB extracellular domain (aa Cys32-His430) expressed with the Fc portion of human IgG1 at the C-terminus (human). Kind of test: competition ELISA, 500 pM hTrkB-hFc pre-mixed with mAb, plate-coated hBDNF. On the technique in general: In an ELISA, binding on a coated surface is turned into a signal by an enzyme label.
For test [2] the target is unchanged. Briefly: competition ELISA, 500 pM hTrkB-hFc pre-mixed with mAb, plate-coated hNT-4.

Chain of human TrkB extracellular domain (aa Cys32-His430) expressed with the Fc portion of human IgG1 at the C-terminus (human) (chain, as listed by the source limits assumed): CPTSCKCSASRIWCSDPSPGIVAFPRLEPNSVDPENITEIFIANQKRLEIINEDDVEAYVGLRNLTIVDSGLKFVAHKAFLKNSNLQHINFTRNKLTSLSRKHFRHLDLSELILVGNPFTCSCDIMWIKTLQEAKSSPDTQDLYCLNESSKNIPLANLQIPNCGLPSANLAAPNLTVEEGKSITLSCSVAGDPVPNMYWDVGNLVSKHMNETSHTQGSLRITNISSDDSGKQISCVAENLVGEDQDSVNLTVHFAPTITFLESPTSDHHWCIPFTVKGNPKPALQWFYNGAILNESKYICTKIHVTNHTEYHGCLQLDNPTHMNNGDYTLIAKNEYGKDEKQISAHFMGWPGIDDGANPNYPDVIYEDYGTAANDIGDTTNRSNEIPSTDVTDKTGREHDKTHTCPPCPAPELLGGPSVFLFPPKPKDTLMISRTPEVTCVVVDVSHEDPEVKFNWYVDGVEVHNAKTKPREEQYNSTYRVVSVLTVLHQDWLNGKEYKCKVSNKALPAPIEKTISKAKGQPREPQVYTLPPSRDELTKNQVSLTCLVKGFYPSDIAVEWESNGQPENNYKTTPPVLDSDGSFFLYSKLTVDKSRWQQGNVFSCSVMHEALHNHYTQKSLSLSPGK

“mIgG1 negative isotype control (antibody)”: the % Blockade with 100 nM antibody in test [1] is -19%; in test [2], -14%.

Consider “hIgG4 negative isotype control (antibody)”, for which the % Blockade with 100 nM antibody in test [1] was -31%; in test [2] it was -45%.
